Test results: publication PMC6541275

Biological target: Wild-type Microplasmin (human) (UniProt P00747)
Chain of UniProt P00747 (P00747 whole entry): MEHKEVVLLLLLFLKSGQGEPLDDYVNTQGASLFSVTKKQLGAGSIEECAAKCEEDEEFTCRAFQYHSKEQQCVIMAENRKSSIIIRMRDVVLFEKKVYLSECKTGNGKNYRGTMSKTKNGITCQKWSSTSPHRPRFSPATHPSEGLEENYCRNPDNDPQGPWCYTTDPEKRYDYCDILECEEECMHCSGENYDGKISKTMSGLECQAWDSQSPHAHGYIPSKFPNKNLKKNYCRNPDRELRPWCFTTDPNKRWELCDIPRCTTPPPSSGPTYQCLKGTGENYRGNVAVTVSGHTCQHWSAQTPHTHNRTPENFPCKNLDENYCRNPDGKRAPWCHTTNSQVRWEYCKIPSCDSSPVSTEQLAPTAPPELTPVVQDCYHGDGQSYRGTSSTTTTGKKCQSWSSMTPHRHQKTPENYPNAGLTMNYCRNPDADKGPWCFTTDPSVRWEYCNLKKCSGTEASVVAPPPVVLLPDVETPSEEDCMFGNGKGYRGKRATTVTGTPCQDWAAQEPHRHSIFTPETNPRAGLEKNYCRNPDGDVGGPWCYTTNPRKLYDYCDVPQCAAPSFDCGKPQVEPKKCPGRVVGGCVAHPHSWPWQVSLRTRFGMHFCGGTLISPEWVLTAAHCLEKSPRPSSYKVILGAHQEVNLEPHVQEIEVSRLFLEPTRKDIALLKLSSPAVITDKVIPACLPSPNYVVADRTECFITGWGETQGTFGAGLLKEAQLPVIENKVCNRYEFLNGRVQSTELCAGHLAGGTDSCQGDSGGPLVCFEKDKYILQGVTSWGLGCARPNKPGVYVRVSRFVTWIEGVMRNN

In vitro half-life of inactivation by α2-antiplasmin: residual amidolytic activity (Chromozym PL, 405nm) of 20nM microplasmin with 60nM antiplasmin, 100mM sodium phosphate pH 7.2, 25°C, 15sec-30 min: 5 min
B1: α2-antiplasmin (natural protein)
chain: NQEQVSPLTLLKLGNQEPGGQTALKSPPGVCSRDPTPEQTHRLARAMMAFTADLFSLVAQTSTCPNLILSPLSVALALSHLALGAQNHTLQRLQQVLHAGSGPCLPHLLSRLCQDLGPGAFRLAARMYLQKGFPIKEDFLEQSEQLFGAKPVSLTGKQEDDLANINQWVKEATEGKIQEFLSGLPEDTVLLLLNAIHFQGFWRNKFDPSLTQRDSFHLDEQFTVPVEMMQARTYPLRWFLLEQPEIQVAHFPFKNNMSFVVLVPTHFEWNVSQVLANLSWDTLHPPLVWERPTKVRLPKLYLKHQMDLVATLSQLGLQELFQAPDLRGISEQSLVVSGVQHQSTLELSEVGVEAAAATSIAMSRMSLSSFSVNRPFLFFIFEDTTGLPLFVGSVRNPNPSAPRELKEQQDSPGNKDFLQSLKGFPRGDKLFGPDLKLVPPMEEDYPQFGSPK
